Usually IC50 stands for the point on the concentration scale where inhibition reaches its midpoint.

For test [1], the target named is human TGFβ3, mature dimeric form (human) (UniProt P10600).
Test [2] deals with human TGFβ2, mature receptor-binding domain (human).
The target of test [3] is human TGFβ3, mature dimeric form (human) (UniProt P10600). The source holds these as a separate data set.
For test [4], the target named is human TGFβ1, mature receptor-binding domain (human) (UniProt P01137).
The target of test [5] is human TGFβ2, mature receptor-binding domain (human). The source holds these as a separate data set.
For test [6], the target named is human TGFβ1, mature receptor-binding domain (human) (UniProt P01137). The source holds these as a separate data set.

Sequence of Fc-LAP1 (P01137 30-278 limits assumed): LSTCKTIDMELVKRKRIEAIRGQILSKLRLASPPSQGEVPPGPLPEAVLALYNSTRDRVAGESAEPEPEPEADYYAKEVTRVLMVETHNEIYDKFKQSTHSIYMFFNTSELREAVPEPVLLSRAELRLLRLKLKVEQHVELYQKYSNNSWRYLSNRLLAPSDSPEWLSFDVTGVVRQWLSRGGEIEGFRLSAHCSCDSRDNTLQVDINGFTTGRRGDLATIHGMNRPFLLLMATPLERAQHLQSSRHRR
Sequence of human TGFβ2, mature receptor-binding domain (human) (P09858 303-414 limits assumed): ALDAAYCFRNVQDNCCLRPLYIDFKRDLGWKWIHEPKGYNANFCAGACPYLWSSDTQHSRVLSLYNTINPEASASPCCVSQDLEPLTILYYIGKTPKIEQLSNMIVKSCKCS
Sequence of human TGFβ3, mature dimeric form (human) (P10600 301-412): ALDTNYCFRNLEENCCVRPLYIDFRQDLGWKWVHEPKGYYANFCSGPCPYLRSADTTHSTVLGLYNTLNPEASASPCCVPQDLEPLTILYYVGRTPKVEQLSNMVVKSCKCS
Sequence of human TGFβ1, mature receptor-binding domain (human) (P01137 279-390 limits assumed): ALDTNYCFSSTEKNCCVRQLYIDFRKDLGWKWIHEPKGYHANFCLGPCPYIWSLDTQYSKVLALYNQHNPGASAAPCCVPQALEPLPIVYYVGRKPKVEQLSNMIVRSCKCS

As for “Fc-LAP1 (from UniProt P01137 30-278) (Fc fusion)”, the IC50 (read off the curve) in test [1] is 0.04 nM; in test [2], 0.07 nM; in test [6] it was 0.1 nM. In addition, the half-inhibitory concentration (IC50) in test [3] was 43 nM; in test [4], 96 nM; in test [5] it was 64 nM.

Source of the values: US20210301005A1.
